Test [1] deals with human placental laminin (human). The test is described as follows: HEK293-6E cell display flow cytometry; 500 nM laminin-biotin + streptavidin-Alexa Fluor 647; secondary only 1.77. On the technique in general: In flow cytometry, cells or beads pass a laser one at a time.
Test [2] has the same target. Briefly: HEK293-6E cell display flow cytometry; 500 nM laminin-biotin + streptavidin-Alexa Fluor 647; secondary only 4.17.
The target of test [3] is BSA (bovine) (UniProt P02769). Briefly: ELISA; BSA as control antigen, neat eluted His-tagged protein, anti-pentaHis-HRP. In general terms: In an ELISA, binding on a coated surface is turned into a signal by an enzyme label.
Chain of BSA (bovine) (P02769 25-607 limits assumed): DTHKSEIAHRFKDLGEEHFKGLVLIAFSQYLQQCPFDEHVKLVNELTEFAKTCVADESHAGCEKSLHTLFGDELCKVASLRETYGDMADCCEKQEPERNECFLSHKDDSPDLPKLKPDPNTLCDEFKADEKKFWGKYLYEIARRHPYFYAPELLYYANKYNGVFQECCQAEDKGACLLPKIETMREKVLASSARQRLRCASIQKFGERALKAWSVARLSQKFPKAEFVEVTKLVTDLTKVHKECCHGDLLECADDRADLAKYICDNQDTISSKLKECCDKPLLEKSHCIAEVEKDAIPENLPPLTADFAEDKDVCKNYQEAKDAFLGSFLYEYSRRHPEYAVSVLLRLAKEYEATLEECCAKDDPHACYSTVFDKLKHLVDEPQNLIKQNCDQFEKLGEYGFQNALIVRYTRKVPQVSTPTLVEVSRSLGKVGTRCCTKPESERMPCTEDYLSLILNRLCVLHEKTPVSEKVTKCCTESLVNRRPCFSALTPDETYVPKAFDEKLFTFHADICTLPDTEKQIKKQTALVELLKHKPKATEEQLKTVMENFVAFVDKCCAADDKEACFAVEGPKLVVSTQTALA
In test [4] the target is human placental laminin (human). Briefly: HEK293-6E cell display flow cytometry; 500 nM laminin-biotin + streptavidin-Alexa Fluor 647; secondary only 5.57.
For test [5] the target is unchanged. The test is described as follows: HEK293-6E cell display flow cytometry; 500 nM laminin-biotin + streptavidin-Alexa Fluor 647; secondary only 3.28.
For test [6] the target is unchanged. Briefly: bead flow cytometry; EVs on CD9+ capture beads, 5 µg/mL biotinylated laminin + neutravidin-PE; with competition of 3-fold molar excess of unlabelled laminin (15 µg/mL).
The target is the same in test [7]. The test is described as follows: bead flow cytometry; EVs on CD9+ capture beads, 5 µg/mL biotinylated laminin + neutravidin-PE; without competition.
The target is the same in test [8]. The test is described as follows: HEK293-6E cell display flow cytometry; 500 nM laminin-biotin + streptavidin-Alexa Fluor 647; secondary only 4.11.
For test [9] the target is unchanged. Briefly: HEK293-6E cell display flow cytometry; 500 nM laminin-biotin + streptavidin-Alexa Fluor 647; secondary only 6.09.

From patent publication US20210395725A1 come the findings set out here.

B1: laminin-binding CD81 LEL mutant L2B_LU1_1 (designed binder)
chain: FVNKDQIAKDVKQFYDQALWKCCNLSQANNACAVVKTFHETLDCCGSSTYLCATYCVLWPNLCPSGSNIISNLFKEDCHQKIDDLFSGK
As to B1, in test [1], the % antigen-positive cells came to 20.1%.

B2: laminin-binding CD81 LEL mutant 81_L13 (designed binder)
chain: FVNKDQIAKDVKQFYDQCLSWACNRKYEPNAKACVKTFHETLDCCGSSTKANYTHCVLEMNLCPSGSNIISNLFKEDCHQKIDDLFSGK
Turning to B2, the % antigen-positive cells in test [2] is 30.8%.

B3: laminin-binding CD81 LEL mutant L2A_LU1 (designed binder)
chain: FVNKDQIAKDVKQFYDQALRECCNTFDANNACAVVKTFHETLDCCGSSTTHSSTGCVLFFNLCPSGSNIISNLFKEDCHQKIDDLFSGK
B3 showed an A450/620 (average) in test [3] of 0.045.

B4: laminin-binding CD81 LEL mutant L2A_LU1_1 (designed binder)
chain: FVNKDQIAKDVKQFYDQALMICCHRHYANNACAVVKTFHETLDCCGSSTPSSTTPCVLQNNLCPSGSNIISNLFKEDCHQKIDDLFSGK
B4: the % antigen-positive cells in test [4] stood at 37.9%.

B5: laminin-binding CD81 LEL mutant 81_L21 (designed binder)
chain: FVNKDQIAKDVKQFYDQALFICCFRRYANNACAVVKTFHETLDCCGSSTRNNETACVLAKNLCPSGSNIISNLFKEDCHQKIDDLFSGK
Turning to B5, the % antigen-positive cells in test [5] came out at 37.1%.

B6: wild-type CD81-eGFP on recombinant EVs (protein, not shown: large carriers)
chain: MGVEGCTKCIKYLLFVFNFVFWLAGGVILGVALWLRHDPQTTNLLYLELGDKAPNTFYVGIYILIAVGAVMMFVGFLGCYGAIQESQCLLGTFFTCLVILFACEVAAGIWGFVNKDQIAKDVKQFYDQALQQAVVDDDANNAKAVVKTFHETLDCCGSSTLTALTTSVLKNNLCPSGSNIISNLFKEDCHQKIDDLFSGKLYLIGIAAIVVAVIMIFEMILSMVLCCGIRNSSVY
For the molecule B6, in test [6], the Mean 561 was found to be 23900, the Mean 561 - BG is 18700 and the ratio 488/561 was 0.248. Moreover, in [7], the Mean 561 was determined as 20200, the Mean 561 - BG stood at 14800 and the ratio 488/561 turned out to be 0.21.

B7: laminin-binding CD81 LEL mutant 81_L17 (designed binder)
chain: FVNKDQIAKDVKQFYDQCLRHACSGLSGRNAKACVKTFHETLDCCGSSTIKHKTLCVLIKNLCPSGSNIISNLFKEDCHQKIDDLFSGK
In the case of B7, the % antigen-positive cells in [8] is 28.1%.

B8: laminin-binding CD81 LEL mutant L2B_LU1 (designed binder)
chain: FVNKDQIAKDVKQFYDQALVFCCFGGHANNACAVVKTFHETLDCCGSSTHPYKTKCVLQRNLCPSGSNIISNLFKEDCHQKIDDLFSGK
With B8, in test [9], the % antigen-positive cells was 54.2%.

B9: laminin-binding CD81 LEL mutant L3B_LU1_2 (designed binder)
chain: FVNKDQIAKDVKQFYDQCLKYACKQGDWENAKACVKTFHETLDCCGSSTVANMTRCVLPANLCPSGSNIISNLFKEDCHQKIDDLFSGK
Molecule B9 gave an A450/620 (average) in [3] of 0.021.

B10: laminin-binding CD81 LEL mutant L3A_LU1 (designed binder)
chain: FVNKDQIAKDVKQFYDQCLLWACSKRYKYNAKACVKTFHETLDCCGSSTMGNLTECVLIENLCPSGSNIISNLFKEDCHQKIDDLFSGK
Take B10: the A450/620 (average) in test [3] was 0.016.
